Consider one protein from US7291492.

Series [1] concerns the target [3H]acetyl-labelled peptide corresponding to the N-Terminus of histone H4, P62805.
Series [2] deals with [3H]acetyl-labelled peptide corresponding to the N-Terminus of Histone H3, P68431.

B1: N-Terminus flag tagged HDAC9 (protein)
chain: MHSMISSVDVKSEVPVGLEPISPLDLRTDLRMMMPVVDPVVREKQLQQELLLIQQQQQIQKQLLIAEFQKQHENLTRQHQAQLQEHIKLQQELLAIKQQQELLEKEQKLEQQRQEQEVERHRREQQLPPLRGKDRGRERAVASTEVKQKLQEFLLSKSATKDTPTNGKNHSVSRHPKLWYTAAHHTSLDQSSPPLSGTSPSYKYTLPGAQDAKDDFPLRKTASEPNLKVRSRLKQKVAERRSSPLLRRKDGNVVTSFKKRMFEVTESSVSSSSPGSGPSSPNNGPTGSVTENETSVLPPTPHAEQMVSQQRILIHEDSMNLLSLYTSPSLPNITLGLPAVPSQLNASNSLKEKQKCETQTLRQGVPLPGQYGGSIPASSSHPHVTLEGKPPNSSHQALLQHLLLKEQMRQQKLLVAGGVPLHPQSPLATKERISPGIRGTHKLPRHRPLNRTQSAPLPQSTLAQLVIQQQHQQFLEKQKQYQQQIHMNKLLSKSIEQLKQPGSHLEEAEEELQGDQAMQEDRAPSSGNSTRSDSSACVDDTLGQVGAVKVKEEPVDSDEDAQIQEMESGEQAAFMQQPFLEPTHTRALSVRQAPLAAVGMDGLEKHRLVSRTHSSPAASVLPHPAMDRPLQPGSATGIAYDPLMLKHQCVCGNSTTHPEHAGRIQSIWSRLQETGLLNKCERIQGRKASLEEIQLVHSEHHSLLYGTNPLDGQKLDPRILLGDDSQKFFSSLPCGGLGVDSDTIWNELRSSGAARMAVGCVIELASKVASGELKNGFAVVRPPGHHAEESTAMGFCFFNSVAITAKYLRDQLNISKILIVDLDVHHGNGTQQAFYADPSILYISLHRYDEGNFFPGSGAPNEVGTGLGEGYNINIAWTGGLDPPMGDVEYLEAFRTIVKPVAKEFDPDMVLVSAGFDALEGHTPPLGGYKVTAKCFGHLTKQLMTLADGRVVLALEGGHDLTAICDASEACVNALLGNELEPLAEDILHQSPNMNAVISLQKIIEIQSKYWKSVRMVAVPRGCALAGAQLQEETETVSALASLTVDVEQPFAQEDSRTAGEPMEEEPAL
Turning to B1, in series [1], the “histone deacetylase activity (release of [3H]acetate from the peptide), relative to HDAC1” value is reported as “HDAC9 contains about 25% activity of HDAC1”; the “histone deacetylase activity (release of [3H]acetate from the peptide), relative to HDACs 4 and 5” value is 50% activity of HDACs 4 and 5. Further, the “histone deacetylase activity (release of [3H]acetate from the peptide)” value in series [2] is on record as “Higher activities of HDAC9 have been detected towards peptide substrates derived from histone H3 than from histone H4”.
